Experimental findings from patent publication US20240084003A1 (SIMCERE ZAIMING PHARMACEUTICAL, published 2024) are described below.

To fix the notation:
B1: F1.60.9 (antibody, human IgG1, kappa, V domains shown)
VH: QVQLKESGPGLVAPSQSLSITCTVSGLSLNNYGVSWVRQPPGKGLEWLGVIWGDGSTNYHSALISRLSISKDNSKSQVFLKLNSLHTDDTATYYCAINWGDYWGQGTTLIVSS
VL: DIKMTQSPSSMNASLGERVTITCKASQDINSYLSWFQQKPGKSPKILIYRANRLIDGVPSRFSGSGSGQDYSLTISSLEYEDMGIYYCLQYGVFPLTFGAGTKLELKR
notes: human-murine chimeric IgG1 kappa
B2: F1.245.2 (antibody, human IgG1, kappa, V domains shown)
VH: EVQLQQSGAELVKPGASVKLSCTGSGFNIKDYYIHWVKQRTEQGLEWMGRIDPEDGETEYAPKFQDEATITSDTSSNTAYLQLSSLTYEDTAVYYCAREAAGYFYRGSSYGYFDVWGTGTTVTVSS
VL: DFQMTQTTSFLSASLGDRVTISCSASQDISNYLNWYQQKPDGTVKLLIYYTSSLHSGVPSRFSGSGSGTDYSLTISNLEPEDIATYYCQQYSMLPYTFGGGTKLEMER
notes: as for B1
B3: F2.70.2 (antibody, human IgG1, lambda, V domains shown)
VH: EVQLVESGGGLVKPGGSLKLSCAASGFTFSDYGMNWFRQAPEKGLEWVAYISRGSHTIYYADTVKGRFTISRDNAKNTLFLQMTSLRSNDTAMYYCVRMAGYYAMDYWGQGTSVTVSS
VL: QLVLTQSSSASFSLGASAKLTCTLSSQHSSYIIEWYQQQPLKPPKYVMELKKDGSHSTGDGIPDRFSGSSSGADRYLSISNIQPEDEAIYICGVGDTIKEQFVYVFGGGTKVTVLG
notes: human-murine chimeric IgG1 lambda
B4: F2.180.16 (antibody, human IgG1, lambda, V domains shown)
VH: EVKLVESGGGLVLPGGSLKISCAASGFTFSDYYMYWIRQTPDKRLEWVAYISNTGYSTFYPDSVKGRFTVSRDNAKNTLYLQMSRLQSEDTAMYYCARHGILYAMDYWGQGTSVTVSS
VL: QPVLTQSSSASFSLGASAKLTCTLSSQYSTYTIGWYQQQPLKPPKYVMELKHDGSRHTGDGIPDRFSGSSSGADRYLSISNIQPEDEATYICGVGDTIKEQFMYVFGGGTKVTVLG
notes: as for B3
B5: F2.104.10 (antibody, human IgG1, lambda, V domains shown)
VH: EVQLVESGGGFVKPGGSLKLSCAASGFTFSDYGMNWFRQAPEKGLEWVAYISRGSHTIYYADTVKGRFTISRDNAENTLFLQMTSLRSNDTAMYYCVRMAGYYAMDYWGQGTSLTVSS
VL: QLVLTQSSSASFSLGASAKLTCTLSSQHSSYIIEWYQQQPLKPPKYVMEVKKDGSHSTGDGIPDRFSGSSSGADRYLSISNIQSEDEAIYICGVGDTIKEQFVYVFGGGTKVTVLG
notes: as for B3
B6: F2.343.16 (antibody, human IgG1, lambda, V domains shown)
VH: QVQLKQSGPGLVQPSQSLSITCTVSGFSLTGYGVQWVRQSPGKGLEWLGVIWGGGGTDYNAAFISRLNIIKDNSKSQVFFKMNSLQADDTAIYYCARYSKYGHFDVWGTGTAVTVSS
VL: QAVVTQESALTTSPGETVTLTCRSSTGAVTTSNYANWVQEKPDHLFTGLIGGTYNRVPGVPARFSGSLIGDKAALTITGAQTEDEAIYFCALWYSNHFWVFGGGTKLTVLG
notes: human-murine chimeric IgG1 lambda; VL name legible
B7: F1.257.3 (antibody, human IgG1, kappa, V domains shown)
VH: QVQLQQSGPELARPGASVKLSCKASGYTFTSYGISWVKQRTGQDLEWIGEIYPKLGTTYYNEKFKDKATLTTDRSSSTAYMALRSLTSEDSAVYFCACPHYYATRGGDYWGQGTTLTVSS
VL: EIVLTQSPATLSVTPGDSVTFSCRASQSISNHLHWYQQKSHESPRLLIRYASQSISGIPSRFSGSGSGTDFTLSLSSVETEDFGVYFCQQSHSWPYTFGGGTKLEIAR
notes: human-murine chimeric IgG1 kappa; VL name legible

The target of this assay is T1, monkey CD22 on HEK293T-monkey CD22 cells (monkey).
T1 construct: full-length entry expressed on stably transfected HEK293T cells
T1 chain: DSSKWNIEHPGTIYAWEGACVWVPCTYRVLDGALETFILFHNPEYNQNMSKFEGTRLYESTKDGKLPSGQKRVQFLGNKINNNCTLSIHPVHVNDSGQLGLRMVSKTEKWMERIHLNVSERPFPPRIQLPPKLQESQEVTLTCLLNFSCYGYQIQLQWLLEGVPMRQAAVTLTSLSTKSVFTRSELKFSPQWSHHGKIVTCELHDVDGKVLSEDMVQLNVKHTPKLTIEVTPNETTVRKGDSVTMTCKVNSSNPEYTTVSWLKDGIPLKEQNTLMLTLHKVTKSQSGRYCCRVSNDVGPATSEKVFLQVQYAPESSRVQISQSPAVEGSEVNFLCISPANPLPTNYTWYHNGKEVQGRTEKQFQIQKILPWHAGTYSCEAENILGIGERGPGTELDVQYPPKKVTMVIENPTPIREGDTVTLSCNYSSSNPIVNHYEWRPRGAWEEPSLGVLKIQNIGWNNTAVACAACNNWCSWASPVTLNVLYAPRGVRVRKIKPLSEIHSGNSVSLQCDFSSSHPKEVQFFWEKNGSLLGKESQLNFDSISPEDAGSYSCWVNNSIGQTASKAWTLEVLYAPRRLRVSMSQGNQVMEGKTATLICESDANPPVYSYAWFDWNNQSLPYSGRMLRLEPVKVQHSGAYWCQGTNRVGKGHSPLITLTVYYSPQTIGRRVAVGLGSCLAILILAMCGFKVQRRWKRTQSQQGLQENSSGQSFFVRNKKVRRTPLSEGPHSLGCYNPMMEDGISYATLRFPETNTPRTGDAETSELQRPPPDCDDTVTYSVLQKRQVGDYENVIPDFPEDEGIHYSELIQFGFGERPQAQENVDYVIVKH
The assay can be described thus: FACS, HEK293T-monkey CD22 cells, EC50 column. The procedure:
For suspension cell Raji, the medium supernatant was directly centrifuged and discarded, and the cell pellet was washed 2 times with PBS. After counting the cells in the previous step, the cell pellet was resuspended with [PBS+2% (w/w) BSA] blocking solution to 2×10⁶ cells/ml, and added to a 96-well FACS reaction plate at 50 μl/well, and then the chimeric antibody test sample was added at 50 μl/well, and incubated on ice for 2 hours. The mixture was centrifuged and washed 3 times with PBS buffer, Alexa Flour 488-labeled secondary antibody (purchased from Invitrogen, catalog number: A-11013) was added at 50 μl/well, and incubated on ice for 1 hour. The obtained mixture was centrifuged and washed 5 times with PBS, and FACS (FACS Canto™, purchased from BD Company) was used for detection and result analysis. Data analysis was performed by software (CellQuest) to obtain the mean fluorescence density (MFI)of the cells. And then software (GraphPad Prism8) was used for analysis, data fitting, and EC50 value calculation. […] The same method was used to detect the binding of the chimeric antibodies to endogenous CD22-negative cell MoLT4 cells (purchased from ATCC, CRL-1582) and CHO-K1 cells.
HEK293T-monkey CD22 cells were subjected to FACS detection and data analysis according to the method in Example 5.2.
For orientation: Flow cytometry measures light scatter and fluorescence of single cells or particles in a stream.
For the molecule B1, the binding result is listed as “no binding”.

As to B2, the binding result was “no binding”.

In the case of B3, the binding result is listed as “no binding”.

Regarding B4, the binding result was “no binding”.

For B5, the binding result was “no binding”.

Turning to B6, the binding result is “no binding”.

B7: the binding result was “no binding”.
